How the values were obtained:
Test in all cases: Adhesion of radioactively labeled bacteria to treated hydroxyapatite (HA)
Assay type in all cases: cell-based
Actinomyces viscosus = conditions: HA treated with the protein/peptide, saliva-treated HA = 100%
Protocol: (§1) PRP-1 and PRP-1(Tl) were investigated for their abilities to promote adhesion of bacteria to HA. Essentially, the method is to treat HA samples with nothing (negative control), saliva (positive control), or the respective proteins or peptides. The excess agent is removed by washing, and suspensions of radioactively labeled bacteria are added to the treated HA. After a suitable time, the excess bacteria are removed by washing and those remaining adsorbed to the HA are counted in a scintillation counter. In the table of results, bacterial adsorption to saliva-treated HA is considered to be 100%, and adsorption to PRP-1 or PRP-1(Tl)-treated HA expressed as a percentage of this reference value. This approach is necessary because of the diverse behaviors of different bacteria.

Streptococcus sanguis = test system: Streptococcus sanguis
Protocol: as §1

Streptococcus mutans = conditions: HA treated with the protein/peptide, saliva-treated HA = 100%
Protocol: as §1

Bacteroides gingivalis = test system: Bacteroides gingivalis
Protocol: as §1

Streptococcus mitis = conditions: HA treated with the protein/peptide, saliva-treated HA = 100%
Protocol: as §1

B1: PRP-1: acidic proline-rich phosphoprotein derived from human saliva, 150 residues; sequence shown in the diagram (protein, UniProt P02810 17-166, looked up)
Salivary acidic proline-rich …: QDLDEDVSQEDVPLVISDGGDSEQFIDEERQGPPLGGQQSQPSAGDGNQNDGPQQGPPQQGGQQQQGPPPPQGKPQGPPQQGGHPPPPQGRPQGPPQQGGHPRPPRGRPQGPPQQGGHQQGPPPPPPGKPQGPPPQGGRPQGPPQGQSPQ
Actinomyces viscosus
  PERCENT ADHESION COMPARED TO SALIVA-TREATED HA: 105%
Streptococcus sanguis; S. sanguis, versus saliva-treated HA
  adhesion of organism to treated HA (in words): higher than adhesion to saliva-treated HA
Streptococcus sanguis; Streptococcus sanguis, HA treated with the protein/peptide, saliva-treated HA = 100%
  PERCENT ADHESION COMPARED TO SALIVA-TREATED HA: 144%
Streptococcus mutans
  PERCENT ADHESION COMPARED TO SALIVA-TREATED HA: 81%
Bacteroides gingivalis; B. gingivalis, versus saliva-treated HA
  adhesion of organism to treated HA (in words): higher than adhesion to saliva-treated HA
Bacteroides gingivalis; Bacteroides gingivalis, HA treated with the protein/peptide, saliva-treated HA = 100%
  PERCENT ADHESION COMPARED TO SALIVA-TREATED HA: 335%
Streptococcus mitis
  PERCENT ADHESION COMPARED TO SALIVA-TREATED HA: 38%
